Patent US20220356229A1 (published 2022)
Positions count from the first letter of the chain named.

B1: antibody 475 (antibody, V domains shown)
VH: QVQLVESGGGVVQPGRSLRLSCAASGFTFSSYAMHWVRQAPGKGLEWVTFISHEGSNKYYADSVKGRFTISRDNSKNTLYLQMNSLRAEDTAVYYCARTFEYSSSSATGDFDYWGQGTLVTVSS
VL: QSVLTQPPSVSGAPGQRVTISCTGSSSNIGAGYDVHWYQQLPGTAPKLLIYGNSNRPSGVPDRFSGSKSGTSASLAITGLQAEDEADYYCQSYDSSLSGVVFGGGTKLTVL
B2: antibody 454 (antibody, V domains shown)
VH: QVQLVQSGAEVKKPGASLKVSCKASGYIFTGYYMHWVRQAPGQGLEWMGWISPNSGGTKYAQKFQGRVTMTRDTSISTAYMELSRLRSDDSAVYYCAREPYYDILTGYYTPRRYLDYWGQGTLVTVSS
VL: QSALTQPASVSGSPGQSITISCTGTSSDVGDYNYVSWYQQHPGKVPKLMIYDVSHRPSGVTNRFSGSKSGNTASLTISGLRAEDEADYYCSSYTSSSTYVFGTGTKVTVL
B3: antibody 446 (antibody, V domains shown)
VH: QVQLVESGGGVVQPGRSLRLSCAASGFTFSSYAMHWVRQAPGKGLEWVAVISYDGSNKYYADSVKGRFTISRDNSKNTLYLQMNSLRAEDTAVYYCARPNSGSYFGYFQHWGQGTLVTVSS
VL: QSVLTQPPSVSGAPGQRVTISCTGSSSNIGAGYDVHWYQQLPGTAPKLLIYGNSNRPSGVPDRFSGSKSGTSASLAITGLQAEDEADYYCQSYDSSLSGFYVFGTGTKVTVL
B4: antibody 434 (antibody, V domains shown)
VH: QVQLVQSGAEVKKPGASVQVSCKASGYTFSDYYIFWVRQAPGQGLEWMGCINPKSGGAIYAQRFQGRVTMTRDTSFNTAYMEMNRLGSDDTAVYYCVTRGPPDIAASGFAWHLDVWGQGTTVTVSS
VL: DIVMTQSPLSLPVTPGEPASISCRSSQSLLSSNGYNYLEWYLQKPGQSPQLLMYLGSNRASGVPDRFSGSGSGTDFTLKINRVEAEDVGVYYCMQALQTPLTFGGGTKVEIK
B5: antibody 476 (antibody, V domains shown)
VH: QVQLVQSGSELKKPGASVKVSCKASGYTFTSYAMNWVRQAPGQGLEWMGWINTNTGNPTYAQGFTGRFVFSLDTSVSTAYLQISSLKAEDTGVYYCARDHELPNSSSWFGHFEYWGQGTLVTVSS
VL: SYELTQPPSVSVSPGQTARITCSGDALPKQYAYWYQQKAGQAPVLVIYKDSERRSGIPERFSGSSSGTTVTLTISGVQAEDEADYYCQSADSSGTSVVFGGGTKLTVL
B6: antibody 444 (antibody, V domains shown)
VH: QVQLVESGGGLVKPGGSLRLSCAASGFTFSDYYMSWIRQAPGKGLEWVSYISSSGSTIYYADSVKGRFTISRDNAKNSLYLQMNSLRAEDTAVYYCARERKVVVAATRNYYYYYGMDVWGQGTTVTVSS
VL: SYELTQPPSVSVSPGQTARITCSGDALPKQYAYWYQQKPGQAPVLVIYKDSERPSGIPERFSGSSSGTTVTLTISGVQAEDEADYYCQSADSSTWVFGGGTKLTVL
B7: antibody 439 (antibody, V domains shown)
VH: B3 VH with N100P, S101R, S103G, Y104S, F105Y, G106Y, Y107P, Q109D, H110P
VL: not shown
B8: antibody 452 (antibody, V domains shown)
VH: QVQLVESGGGLVKPGGSLRLSCAASGFTFSDYYLSWIRQAPGKGLEWVSYISSSGSNIYYADSVKGRFTISRDNAKNSLYLQMNSLRADDTAVFYCARAGRYCSGGSCRVEYFQHWGQGTLVTVSS
VL: SYELTQPPSVSVSPGQTARITCSGDALPKQYAYWYQQKPGQAPVLVIYKDNERPSGIPERFSGSSSGTTATLTISGVQAEDEADYYCQSADSSGTVVFGGGTKLTVL
B9: antibody 470 (antibody, V domains shown)
VH: not shown
VL: QSALTQPASVSGSPGQSITISCTGTSSDVGSYNLVSWYQQHPGKAPKLMIYEVSKRPSGVSNRFSGSKSGNTASLTISGLQAEDEADYYCCSYAGSSTLVFGGGTKLTVL
B10: antibody 474 (antibody, V domains shown)
VH: EVQLVESGGGLVQPGGSLRLSCAASGFTFSSYWMHWVRQAPGKGLVWVSRINSDGSSTSYADSVKGRFTISRDNAKNTLYRQMNSLRAEDTAVYYCALGPLDIVGSYYYYGMDVWGQGTTVTVSS
VL: NFMLTQPHSVSESPGKTVTISCTGSSGSIASNYVQWYQQRPGSAPTTVIYEDNQRPSGVPDRFSGSIDSSSNSASLTISGLKTEDEADYYCQSYDSSNQDVVFGGGTKLTVL
B11: antibody 485 (antibody, V domains shown)
VH: QVQLQESGPGLVKPSGTLSLTCAVSGASISSSNWWSWVRQPPGKGLEWIGEIYHSGSTNYNPSLKSRVTISVDKSKNQFSLKLSSVTAADTAVYYCARRSYYGSGSYYPFDYWGQGTLVTVSS
VL: B9 VL with V53G, S54R, L99Y, G103T, L107V
B12: antibody 477 (antibody, V domains shown)
VH: QVQLVESGGGVVQPGRSLRLSCAASGITFSSYAMHWVRQAPGKGLEWVAVISYDGSDKYHADSVKGRFAISRDNSKNTLYLQMNSLRAEDTAVYYCAKDKGIAVAGTGWIRPDPEYYFDYWGQGTLVTVSS
VL: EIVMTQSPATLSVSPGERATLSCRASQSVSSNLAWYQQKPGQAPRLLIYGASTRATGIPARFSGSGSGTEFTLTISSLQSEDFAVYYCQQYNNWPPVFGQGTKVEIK
B13: antibody 443 (antibody, V domains shown)
VH: QMRLEESGPGLVKPSETLSLTCTVAGGSITSSDYFWGWLRQSPGKGLEWIASTYHGGSIQYHPALKSRVTISVDASKNQISLRLSSVTAADTAVYYCARDRGDDGPMGTYYFDHWGQGALVTVSS
VL: QSVLTQPPSVSGAPGQSVTISCAGSSSNIGAGHDVHWYQQIPGTAPKLLICGNTNRPSGVPERFSGSRSGTSASLAITGLQAEDEAVYYCQSYDPSHVFFGTGTKLTVL
B14: anti-SARS-CoV-2 antibody 412 (antibody, V domains shown)
VH: QVQLVQSGAEVKKPGASVKVSCKASGYTFTSYGISWVRQAPGQGLEWMGWISAYNGNTNYAQKLQGRVTMTTDTSTSTAYMELRSLRSDDTAVYYCARVTVEAIFGVVILPLKNWFDPWGQGTLVTVSS
VL: B1 VL with S98T, G99L, V100Y, G104T, L108V
B15: anti-SARS-CoV-2 antibody 422 (antibody, V domains shown)
VH: QVQLVQSGSELKKPGASVKVSCKASGYTFTSYAMNWVRQAPGQGLEWMGWINTNTGNPTYAQGFTGRFVFSLDTSVSTTYLQISSLKAEDTAVYYCARVIGVVTYYYYGMDVWGQGTTVTVSS
VL: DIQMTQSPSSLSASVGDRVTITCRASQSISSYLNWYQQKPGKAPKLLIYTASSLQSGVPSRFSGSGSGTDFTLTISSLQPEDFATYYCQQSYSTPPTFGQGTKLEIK
B16: anti-SARS-CoV-2 antibody 421 (antibody, V domains shown)
VH: QVQLVESGGGVVQPGRSLRLSCAASGFTFSTYAMHWVRQAPGKGLEWVAVISYDGSNKYYADSVKGRFTISRDNSKNTLYLQMNSLRAEDTAVYYCARGYGSGSYYPLYLYWGQGTLVTVSS
VL: not shown
B17: anti-SARS-CoV-2 antibody 404 (antibody, V domains shown)
VH: QVQLVESGGGVVQPGRSLRLSCAASGFTFSSYGMHWVRQAPGKGLEWVAVIWYDGSNKYYADSVKGRFTISRDNSKNTLYLQMNSLRAEDTAVYYCARLAVDISFDGSDGMDVWGQGTTVTVSS
VL: SYELTQPPSVSVSPGQTARITCSGDALPKKYAYWYQQKSGQAPVLVIYEDSKRPSGIPERFSGSSSGTMATLTISGAQVEDEADYYCYSTDSSGKGVFGTGTKVTVL
B18: anti-SARS-CoV-2 antibody 409 (antibody, V domains shown)
VH: QVTLRESGPALVKPTQTLTLTCTFSGFSLSTSGMCVSWIRQPPGKALEWLALIDWDDDKYYSTSLKTRLTISKDTSKNQVVLTMTNMDPVDTATYYCARTTYYYVSGRRAEFDPWGQGTLVTVSS
VL: NFMLTQPHSVSESPGKTVTISCTGSSGSIASNYVQWYQQRPGSAPTTVIYEDNQRPSGVPDRFSGSIDSSSNSASLTISGLKTEDEADYYCQSYDSSNQGVFGGGTKLTVL
B19: anti-SARS-CoV-2 antibody 431 (antibody, V domains shown)
VH: QVQLVESGGGVVQPGRSLRLSCAASGFTFSSYAMHWVRQAPGKGLEWLAVISYDGSNKYYADSVKGRFTISRDNSKNTLYLQMNSLRAEDTAVYYCARSFRGGYYYGMDVWGQGTTVTVSS
VL: DIQLTQSPSFLSASVGDRVTITCRASQGISSYLAWYQQKPGKAPKLLIYAASTLQSGVPSRFSGSGSGTEFTLTISSLQPEDFATYYCQQLNSYPLFTFGPGTKVDIK
B20: anti-SARS-CoV-2 antibody 423 (antibody, V domains shown)
VH: EVQLVESGGGLIQPGGSLRISCAASGFTVRNNHMSWVRQAPGKGLEWVSVFYRGGTTYYADSVKGRFTISRDDSKNTVDLQMNSLRGEDTAVYYCARGLSVAASGYFDCWGQGTLVTVSS
VL: DIQMTQSPSSVSASVGDTVTITCRANQGISSWLAWYQQVPGKAPELLIYATSTLQSGVPSRFSGSGSGTDFTLTISSLQPEDFATYYCQQANSFPFTFGPGTKVDIK
B21: anti-SARS-CoV-2 antibody 405 (antibody, V domains shown)
VH: not shown
VL: B9 VL with A8R, I18V, S31G, L34Y, E52D, S61P, N62D, S97Y, T98N, L99V
B22: anti-SARS-CoV-2 antibody 407 (antibody, V domains shown)
VH: QVQLVESGGGVVQPGRSLRLSCAASGFTFSSYGMHWVRQAPGKGLEWVAVISYDGSNKYYADSVKGRFTISRDNSKNTLYLQMNSLRAEDTAVYYCAKCGWDYDFWVGQGYGMDVWGQGTTVTVSS
VL: not shown

biological target: SARS-CoV Spike protein (SARS-CoV, UniProt P59594 14-1190)

Point of comparison: B4, “bead binding signal (fold over isotype control)” value 1.36. Against it:
- B1 — lower, 1.18
- B2 — lower, 1.1
- B3 — higher, 6.58
- B5 — lower, 1.04
- B6 — lower, 1
- B7 — lower, 1.23
- B8 — lower, 1.09
- B9 — lower, 1.09
- B10 — lower, 1.1
- B11 — lower, 1.12
- B12 — lower, 1.3
- B13 — lower, 1.03

biological target: SARS-CoV Spike protein (full length Spike, coupled to optically encoded beads) (SARS-CoV, UniProt P59594 14-1190)

Point of comparison: B20, “median fluorescence, fold over isotype” value 1.23 fold over isotype. Against it:
- B14 — lower, 1.09 fold over isotype
- B15 — lower, 1.19 fold over isotype
- B16 — lower, 1.19 fold over isotype
- B17 — lower, 1.04 fold over isotype
- B18 — lower, 1.03 fold over isotype
- B19 — higher, 49.9 fold over isotype
- B21 — higher, 80.9 fold over isotype
- B22 — lower, 1.07 fold over isotype
